Patent publication CN113135995A (SHANGHAI INST OF BIOLOGICAL PRODUCTS CO LTD, dated 2021)

Assays:
[1] = target: T1, HER3胞外区重组蛋白 (recombinant HER3 extracellular domain protein, expressed in CHO cells) (human, UniProt P21860 20-643); assay: ProteOn XPR36 SPR, ratio of KD values
T1 construct: also called HER3蛋白

[2] = target: T1, HER3胞外区重组蛋白 (recombinant HER3 …); assay: ProteOn XPR36 SPR; antibody captured by goat anti-human IgG Fc on GLM chip, HER3 protein 0.625-10 nM as analyte
[3] = target: 细胞表面HER3分子 (HER3 on the surface of human tumour cells) (human, UniProt P21860 20-1342); assay: cell-based or functional assay
[4] = target: T2, hGH标签的HER3胞外区蛋白 (hGH-tagged HER3 extracellular domain protein) (human, UniProt P21860 20-643); assay: blocking ELISA: HRG coated, hGH-tagged HER3 ECD 1 ug/ml, antibody from 2 ug/ml in 1:3 steps, HRP anti-hGH detection
T2 construct: also called HER3分子; not shown: hGH tag
T2 sequence (P21860 20-643): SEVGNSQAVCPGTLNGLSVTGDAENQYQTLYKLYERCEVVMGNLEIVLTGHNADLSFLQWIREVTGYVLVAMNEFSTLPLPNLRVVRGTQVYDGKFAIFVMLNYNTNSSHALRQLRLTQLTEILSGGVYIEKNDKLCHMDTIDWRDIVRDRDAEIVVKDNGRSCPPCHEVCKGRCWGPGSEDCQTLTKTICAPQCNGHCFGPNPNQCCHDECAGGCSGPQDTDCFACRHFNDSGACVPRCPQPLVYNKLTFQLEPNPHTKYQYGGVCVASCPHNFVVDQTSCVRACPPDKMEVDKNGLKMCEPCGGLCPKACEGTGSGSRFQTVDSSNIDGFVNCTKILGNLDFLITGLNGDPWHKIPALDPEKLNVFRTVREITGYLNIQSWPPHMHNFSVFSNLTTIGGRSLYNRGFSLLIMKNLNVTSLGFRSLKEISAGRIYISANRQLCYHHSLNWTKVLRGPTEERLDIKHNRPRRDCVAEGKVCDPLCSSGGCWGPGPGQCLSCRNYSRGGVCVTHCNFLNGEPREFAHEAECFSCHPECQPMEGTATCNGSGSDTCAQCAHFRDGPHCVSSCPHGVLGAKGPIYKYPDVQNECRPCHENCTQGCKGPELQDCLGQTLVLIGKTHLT

T1 sequence (P21860 20-643 limits assumed): as the sequence (P21860 20-643) above
Chain of 细胞表面HER3分子 (HER3 on the surface of human tumour cells) (P21860 20-1342 limits assumed): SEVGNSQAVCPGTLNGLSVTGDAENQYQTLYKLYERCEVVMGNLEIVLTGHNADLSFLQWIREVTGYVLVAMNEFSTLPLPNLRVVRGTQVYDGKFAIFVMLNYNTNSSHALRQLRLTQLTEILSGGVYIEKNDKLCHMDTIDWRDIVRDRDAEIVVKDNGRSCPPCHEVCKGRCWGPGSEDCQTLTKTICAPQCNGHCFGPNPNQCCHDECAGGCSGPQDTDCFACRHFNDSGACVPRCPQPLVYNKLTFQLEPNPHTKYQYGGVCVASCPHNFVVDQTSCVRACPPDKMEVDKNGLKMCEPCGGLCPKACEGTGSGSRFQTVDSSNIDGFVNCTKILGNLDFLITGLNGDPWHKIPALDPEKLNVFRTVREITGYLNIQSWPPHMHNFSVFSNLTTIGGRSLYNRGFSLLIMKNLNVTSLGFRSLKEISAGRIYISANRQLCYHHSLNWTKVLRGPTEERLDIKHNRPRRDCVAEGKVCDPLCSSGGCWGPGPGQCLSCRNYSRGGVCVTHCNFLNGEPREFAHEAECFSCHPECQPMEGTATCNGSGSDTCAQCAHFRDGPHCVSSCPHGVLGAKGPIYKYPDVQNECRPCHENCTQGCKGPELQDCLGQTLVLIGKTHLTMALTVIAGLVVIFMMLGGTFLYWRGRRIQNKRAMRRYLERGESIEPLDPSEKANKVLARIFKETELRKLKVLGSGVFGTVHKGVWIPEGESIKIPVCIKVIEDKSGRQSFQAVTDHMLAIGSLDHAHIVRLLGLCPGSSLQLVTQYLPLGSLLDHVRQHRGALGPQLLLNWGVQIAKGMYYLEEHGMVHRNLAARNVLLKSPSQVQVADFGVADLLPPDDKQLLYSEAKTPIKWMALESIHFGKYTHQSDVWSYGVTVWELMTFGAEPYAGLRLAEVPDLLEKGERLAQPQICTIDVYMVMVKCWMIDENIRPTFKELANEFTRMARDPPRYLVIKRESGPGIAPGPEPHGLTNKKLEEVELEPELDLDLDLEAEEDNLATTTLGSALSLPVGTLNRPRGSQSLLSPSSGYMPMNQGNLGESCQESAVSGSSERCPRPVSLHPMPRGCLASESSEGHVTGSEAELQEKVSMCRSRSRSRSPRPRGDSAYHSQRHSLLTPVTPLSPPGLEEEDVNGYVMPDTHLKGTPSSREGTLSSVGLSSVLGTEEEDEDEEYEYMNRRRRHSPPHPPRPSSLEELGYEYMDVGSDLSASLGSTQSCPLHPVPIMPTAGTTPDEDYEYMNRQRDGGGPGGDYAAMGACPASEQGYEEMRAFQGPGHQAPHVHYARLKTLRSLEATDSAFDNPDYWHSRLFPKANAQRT

| Binder | fold increase in affinity against hu1044 [1] | Kd [2] [nM] | HRG刺激的乳腺癌MCF-7细胞增殖 IC50 (CCK-8) [3] [ng/mL] | fold increase in affinity against hu1044-7 [1] | IC50 [4] [µg/mL] |
| --- | --- | --- | --- | --- | --- |
| hu1044Y抗体 (optimised humanized anti-HER3 antibody hu1044Y) (antibody, human IgG1, kappa, V domains shown, hu1044 with heavy chain position 27 changed from Gly to Tyr) VH: QVQLVQSGAEVKKPGSSVKVSCKASGYTFSNYWIDWVKQAPGQGLEWMGEILPGSGGTDYNEKFKGRVTITADTSTSTAYMELSSLRSEDTAVYYCARDDYDVFAYWGQGTLVTVSS VL: DIVMTQSPGTLSLSPGERATLSCRSSKSLLHSNGITYLYWYQQKPGQAPRLLIYQMSNLASGIPDRFSSSGSGTDFTLTISRLEPEDFAVYYCAQNLELPWTFGQGTKVEIKR | ~2 倍 (fold) | 0.232 | – | – | – |
| hu1044抗体 (humanized anti-HER3 monoclonal antibody hu1044) (antibody, V domains shown) VH: QVQLVQSGAEVKKPGSSVKVSCKASGGTFSNYWIDWVKQAPGQGLEWMGEILPGSGGTDYNEKFKGRVTITADTSTSTAYMELSSLRSEDTAVYYCARDDYDVFAYWGQGTLVTVSS VL: DIVMTQSPGTLSLSPGERATLSCRSSKSLLHSNGITYLYWYQQKPGQAPRLLIYQMSNLASGIPDRFSSSGSGTDFTLTISRLEPEDFAVYYCAQNLELPWTFGQGTKVEIKR | – | 0.442 | – | – | – |
| hu1044-7抗体 (humanized anti-HER3 antibody variant hu1044-7) (antibody, V domains shown) VH: QVQLVQSGAEVKKPGSSVKVSCKASGGTFSNYWIDWVRQAPGQGLEWMGEILPGSGGTDYNEKFKGKATITADTSTSTAYMELSSLRSEDTAVYYCARDDYDVFAYWGQGTLVTVSS VL: DIVMTQSPGTLSLSPGERATLSCRSSKSLLHSNGITYLYWYQQKPGQAPRLLIYQMSNLASGVPDRFSSSGSGTDFTLTISRLEPEDFAVYYCAQNLELPWTFGQGTKVEIKR | – | 0.375 | – | – | – |
| hu1044-7Y抗体 (optimised humanized anti-HER3 antibody hu1044-7Y) (antibody, human IgG1, kappa, V domains shown, hu1044-7 with heavy chain position 27 changed from Gly to Tyr; In the flow cytometry assays it was labelled with Dylight 488 NHS ester) VH: QVQLVQSGAEVKKPGSSVKVSCKASGYTFSNYWIDWVRQAPGQGLEWMGEILPGSGGTDYNEKFKGKATITADTSTSTAYMELSSLRSEDTAVYYCARDDYDVFAYWGQGTLVTVSS VL: DIVMTQSPGTLSLSPGERATLSCRSSKSLLHSNGITYLYWYQQKPGQAPRLLIYQMSNLASGVPDRFSSSGSGTDFTLTISRLEPEDFAVYYCAQNLELPWTFGQGTKVEIKR | – | 0.117 | 13.3 | ~3 倍 (fold) | ~0.1 |
